Substrate in this data set: pNP-C8
Nature of the data set: Proxy for plastic degradation [Absorbance @ 405nm].

B1: unnamed (protein)
chain: MKFRALLFSASLIAILFNGLTINTVNAQTNDFLYGDQLPDAPELSSRGEYKVGVKTVNLVNPNQVDILNSKEGNDPTYDRPITIEVWYPANVGDDAKTVVYDEVMGTRGDSLRPLTPFTFKGRAYRDATPKTGNKFPLVVVSHGYVGSRYLMTYLTENLASKGYIVAAIDHTDSTFKDANAFQSTLLNRPKDIRFVINEMEKMGAKGSKNNLEGVVDANNTAIIGYSMGGYGVLNVGGAGYSAGLAQFFTGMTGGSTAISVHTAGNAAYEKMIDARIKAIVAFAPWGMERGVWDAEGLKGLKTPTFFIAGSQDDISGYEKGIKAIYEGAVNADRYLLTYMNARHNVAPNPPPAEALAPGLHIDEYYRYAEPSWDQRKMNNINQHFVTAFIGKHLKNQDSTKFLEVQEDSNEKDWTGFKPRSSTGMELLHAQPAN
For the protein B1, the “Proxy for plastic degradation” value reads like this: (4 °C) 90%; (10 °C) 90%; (20 °C) 90%; (30 °C) 95%; (40 °C) 100%; (50 °C) 95%. The “Proxy for plastic degradation” value runs as follows: (60 °C) 35%; (70 °C) 5%; (80 °C) 30%; (90 °C) 0%; (pH 3) 0%; (pH 4) 5%. In addition, the “Proxy for plastic degradation” value was 55% (pH 5), 60% (pH 9), 80% (pH 9.2) and 55% (pH 10.2).

B2: unnamed (protein)
chain: MPILNRFAHFQLILCFLISNLVLNAQTGSFVYGDALPDAPELSARGSYAVGVRTLDFVNKGQADVLNSKNGIDPIYDRPLKVEVWYPAQLAEGAKETVVYDEVMGTAHDSLRPLTPITFKGRASRDAAPLTTDGSFPLLVVAHGYVGSRYLMTYLTENLASKGYVVVAIDHTDSTFRDASPFASTLVNRAKDISFVLNQTVNLGKAADNNFLAGLVDSENIGIIGYSMGGYGVLNVAGAGYSDGLVGFFSGMTGGSKAIVDLAMSNPDFPKVDPRIKAVVAFAPWGMERGIWDAEGLKGLKVPTFFIAGSQDDISGYEKGIKAIYTGAVNADRYLLTYENARHNVAPNPPPAESFEPGLHIDEYYRYAEPSWDERKINNVNQHFITAFLGIHLKQKDYSKFLELQENSNEKDWTGFKARSSTGMELLHDKPAP
In the case of B2, the “Proxy for plastic degradation” value came to 95% (4 °C); 70% (10 °C); 90% (20 °C); 90% (30 °C); 100% (40 °C); 90% (50 °C). Moreover, the “Proxy for plastic degradation” value (60 °C) worked out at 10%; the “Proxy for plastic degradation” value (70 °C) came to 15%; the “Proxy for plastic degradation” value (80 °C) was found to be 25%; the “Proxy for plastic degradation” value (90 °C) is 20%; the “Proxy for plastic degradation” value (pH 3) was found to be 0%; the “Proxy for plastic degradation” value (pH 4) was 0%. For the same protein, the “Proxy for plastic degradation” value stood at 0% (pH 5), 0% (pH 9), 0% (pH 9.2) and 0% (pH 10.2).

For the origin of these results see the PETadex activity labels (doi:10.1128/aem.01698-25).
